This is an account of results in article PMC6815410, “Characterization of Xi-class mycothiol S-transferase from Corynebacterium glutamicum and its protective effects in oxidative stress” (Microbial Cell Factories, 2019).

The Km is the substrate concentration at which the rate is half of its maximum. Usually kcat stands for the maximal rate divided by the concentration of active sites. Usually kcat/Km stands for the turnover number divided by the Michaelis constant.

Series [1] relates to CC(C)(C)OO. Kind of series: purified protein. Particulars: 500 μM MSH, 4 μM Mtr, 250 μM NADPH, 1 mM EDTA, 50 mM Tris-HCl pH 7.5.
For series [2], the target named is T1, MstX (NCgl1216) (Corynebacterium glutamicum, UniProt Q8NR03, C262S).
T1 construct: gene Cgl1264
Briefly: MALDI-TOF MS of S-mycothiolated protein. Format: binding. As to conditions: covalent; mixed disulfide at Cys67; formed with H2O2.

Series [3] concerns the target T2, MstX (NCgl1216) (Corynebacterium glutamicum, UniProt Q8NR03).
T2 construct: gene Cgl1264; full length, 359 residues, 40,619 Da; pET28a His6 fusion from E. coli BL21(DE3), tag cleaved; monomer
Kind of series: Mtr-coupled NADPH oxidation at […] nm (thiol transferase assay). The class given is biochemical. As to conditions: 100 mM MSH, 300 μM NADPH, 5 μM Mtr, 50 mM potassium phosphate pH 7.6, 25 °C.

Substrate in series [4]: O=C1O[C@H]([C@@H](O)CO)C(=O)C1=O
Kind of series: purified protein. Format: biochemical, Corynebacterium glutamicum. As to conditions: 100 mM MSH, 300 μM NADPH, 5 μM Mtr, 50 mM potassium phosphate pH 7.6, 25 °C.

Series [5] has as its system CC(C)(OO)c1ccccc1. Kind of series: purified protein. As to conditions: 500 μM MSH, 4 μM Mtr, 250 μM NADPH, 1 mM EDTA, 50 mM Tris-HCl pH 7.5.

For “MstX (NCgl1216) (Corynebacterium glutamicum ATCC 13032)”, in series [1], the Michaelis-Menten constant (Km) amounted to 301.3 ± 46.62 µM and the kcat was found to be 0.135 ± 0.006 s⁻¹.
For `CC(=O)N[C@@H](CS)C(=O)NC1[C@@H](O[C@@H]2[C@H](O)[C@H](O)[C@@H](O)[C@H](O)[C@H]2O)O[C@H](CO)[C@@H](O)[C@@H]1O` (stereo partly drawn) [MSH], in series [2], the “MALDI-TOF MS of S-mycothiolated protein” value was “Pure S-mycothiolated MstX:C262S were confirmed by Matrix-Assisted Laser Desorption/Ionization Time of Flight Mass Spectrometry”.
Take `OCCSSCCO` [HED]: the Michaelis-Menten constant (Km) in series [3] worked out at 192 ± 30 µM.

B1: MstX (NCgl1216) (Corynebacterium glutamicum ATCC 13032) (protein)
chain: MANTSSDWAGAPQNASADGEFVRDTNYIDDRIVADVPAGSEPIAQEDGTFHWPVEAGRYRLVAARACPWAHRTVITRRLLGLENVISLGLTGPTHDVRSWTFDLDPNHLDPVLQIPRLQDAYFNRFPDYPRGITVPALVEESSKKVVTNDYPSITIDFNLEWKQFHREGAPNLYPAELREEMAPVMKRIFTEVNNGVYRTGFAGSQEAHNEAYKRLWVALDWLEDRLSTRRYLMGDHITEADIRLYPTLVRFDAVYHGHFKCGRNKITEMPNLWGYLRDLFQTPGFGDTTDFTEIKQHYYITHAEINPTRIVPVGPDLSGFATPHGREKLGGSPFAEGVTLPGPIPAGEEVKNPEPFQK
notes: full length, 359 residues, 40,619 Da; pET28a His6 fusion from E. coli BL21(DE3), tag cleaved; monomer
With B1, in series [4], the Km came to 1115 ± 252 µM, the kcat is 573 ± 44.3 s⁻¹ and the kcat/Km amounted to 571000 ± 410000 M⁻¹ s⁻¹. In series [5], the Km was found to be 328.1 ± 33.27 µM and the turnover number (kcat) was found to be 0.153 ± 0.005 s⁻¹.
